Measurements: US20050053993A1, “Uses of an endothelial cell receptor” (priority 2002, published 2005)

Assays:
Lewis Lung Carcinoma = assay: Tumor cell proliferation, Lewis Lung Carcinoma; type: cell-based; settings: 72 hours
Protocol: Cell Proliferation Assay. The effect of rK5 and rK5 peptides on endothelial cells were assessed using a proliferation assay with 1% BSA and 3 ng/ml bFGF in serum-free media. Relative cell numbers in each well of a 96 well microplate after incubation for 72 hours in the absence or presence of inhibitors were determined by using the AQueous cell proliferation assay (Promega, San Luis Obispo, Calif.). For all other cell lines tested for proliferation, minimal growth media was used (Cao, Y., Ji, R., Davidson, D., Schaller, J., Marti, D., Sohndel, S., McCance, S., O'Reilly, M., Llinas, M., and Folkman, J. Kringle domains of human angiostatin. Characterization of the anti-proliferative activity on endothelial cells. (1996) J. Biol. Chem. 271, 29461-29467). Results are presented as the percent inhibition of control cell (bFGF-induced) proliferation.

endothelial cells = assay: Binding of labeled K5 to endothelial cells (Scatchard); design: species or system human; settings: stimulated vs starved cells
Description: FIG. 10A is a graph showing the amount of surface expressed GRP78 on endothelial cells compared to rK5 binding. For all the assays in this figure, 50,000 cells were attached to 96 well plates. Human rK5 potency is highly dependent on the extent of iodination because it contains a readily iodinated tyrosine in its binding sequence. […] However dog K5 has a phenylalanine in this position naturally and is folded and active in these assays. Accordingly ^125IrK5 (dog) was used as a reagent. ^125IrK5 (dog) was added to the wells and incubated at room temperature for 1 hour. After 1 hour the cells were washed and the amount of I^125IrK5 (dog) bound was counted.
FIG. 11 is a graph comparing the binding of rK5 to starved, quiescent endothelial cells with that of endothelial cells stimulated by VEGF/bFGF. […] The number of counts remaining bound to the cells after extensive washing determined total amount of rK5 bound.
Binding of human ^125IrK5 to Endothelial Cells: Tritium-labeled rK5 was added to monolayers of 50,000 HMVEC cells that were either starved or stimulated for 16 hours by 15 ng/ml bFGF and 5 ng/ml VEGF in 96 well plates. […] After 1 hour the cells were washed and lysed with M-Per (Pierce, Racine, Wis.) and the amount of ^125IK5 (dog) bound was counted. […] Cells were washed and the amount of bound ^125IK5 (dog) bound was counted. […]

B1: rK5: recombinant kringle 5 fragment of human plasminogen (residues 450-543), expressed in E. coli or yeast (protein)
chain: LLPDVETPSEEDCMFGNGKGYRGKRATTVTGTPCQDWAAQEPHRHSIFTPETNPRAGLEKNYCRNPDGDVGGPWCYTTNPRKLYDYCDVPQCAA
Question: With B1 as the molecule, how does the “IC50 values for cell proliferation” value (Lewis Lung Carcinoma) read?
Answer: The value was >100 µg/mL.

Question: What about the “binding to stimulated endothelial cells upregulated as compared to starved cells” value (endothelial cells) of the same molecule?
Answer: Its value is 4-10 fold.
